Laboratory results from the supplement of paper PMC9170038.

Tested on: MS2 coat protein
Test: apparent KD of MS2 coat protein; designed switch direction (-1 OFF switch, 1 ON switch): -1; higher = weaker reporter binding
Outline: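 The reported apparent KD is a per-design median over clusters, from curve fits of normalised cluster fluorescence. Protein titrations used SNAP-549-labelled MS2 coat protein, doubled from 0.7 or 1.5 nM to 3 µM, in Tris-HCl pH 7.5 buffer with KCl, MgCl2, BSA, DTT, tRNA and Tween-20, with no input, 200 uM small-molecule ligand, or an oligonucleotide input. The RNA switches were transcribed on Illumina chips by stalled E. coli RNA polymerase.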

[1] = Eterna round: R95, input ligand: FMN 200 uM
[2] = Eterna round: R95, input ligand: microRNA oligo, concentration not stated
[3] = Eterna round: R95, input ligand: none
[4] = input ligand: microRNA oligo, concentration not stated

Sequence	apparent KD of MS2 coat protein (input ligand: FMN 200 uM)	apparent KD of MS2 coat protein (input ligand: none)	apparent KD of MS2 coat protein [1]	apparent KD of MS2 coat protein [2]	apparent KD of MS2 coat protein [3]	apparent KD of MS2 coat protein [4]
CUGUGCACGCUGCGAUCCUACAUGAGGAUCACCCAUGUGGUCUGGUGGCGUGGGUCACCGGACUUGGCUCGUCUUGU [salish99_S_TOV1_R5_079] (Eterna round: R97, puzzle: Sensor, turn-off variant 1)	79 nM	90.7 nM				
AGUACUAACACGAAAGUGUUAGUACUGUAGGUUUGUGUUACAUGAGGAUCACCCAUGUCCUCAUAAGCUCGUCUUGU [Mat - Sensor v3 - Turn-off var 2 - D96] (puzzle: Sensor v3, turn-off variant 2)			380 nM	152 nM	368 nM	
UUUUCUUUUGUGAGGAUAUACUUGUUUUUUUUUUUGUAGAAGGCACAUGAGGAUCACCCAUGUUUUCUUUCCUG [JR_BME4_Sub025] (puzzle: Brourd's mod of Exclusion 4)				20.1 nM		
UCAUGUUUAGAGGAUAUGAUUACUCUAGAGUGAUCAGAAGGCUAGACAUGAGGAUCACCCAUGUCAGAACAUGG [Exclusion 6 - B - 17:c] (puzzle: Exclusion 6)			27.5 nM	21.5 nM	29.1 nM	
AACAUCGUAGGAUAUUCGUGCUCAGACAUGAGGAUCACCCAUGUUUGGUGGGUUGGAGAAGGAGAAGGGCGAUGGA [EX5 #18] (Eterna round: R97, puzzle: Exclusion 5)	67.9 nM	92.8 nM				
UUAAAGUCAGGAUAUACAUGAGGAUCACCCAUGUAAAAUUUUAAUUUAAUUUGAAGGUGUAGAAGGGACAAAUU [Ex3 #36] (Eterna round: R97, puzzle: Exclusion 3)	25.6 nM	26 nM				
AGAGAGUCAGGAUAUGACGAAGAGAACAUGAGGAUCACCCAUGUAGCUUCGUAAUCAUCGUCAGAAGGGACGAACU [JR_Ex5_Sub090] (Eterna round: R97, puzzle: Exclusion 5)	14.7 nM	14.8 nM				
AACCUUUAGUUAGGAUAUCGCAUCACCGUCAAGUGAGAAGGGACAUGAGGAUCACCCAUGUCUUCCGUGGGCUACACUGCUUCU [Eternabot solution 5] (Eterna round: R96, puzzle: Exclusion NG 1)	19 nM	27.4 nM				19.4 nM
AAUGUCUGAGGAUAUCGAAUAGUGUACAUGAGGAUCACCCAUGUUUUUAUUAGUAUAUUACGAGAAGGCAGUGGAA [JR_E5_Sub086] (puzzle: Exclusion 5)				16.1 nM		
UGAGUGCUGCGAGGAUAUACAUGAGGAUCACCCAUGUGGAUGUCUGAGGCAAAGCCUCAGACAAUGUAGAAGGCGCAGUACUCU [Mat - Exclusion NG 2 - Mod of JL - D55] (Eterna round: R96, puzzle: Exclusion NG 2)	96.1 nM	25.2 nM				16.6 nM
AGUACUCACACGAAAGUGUUAGUACAAUAAGCUUGUGAAACAUGAGGAUCACCCAUGUCCUCAUAAGCUCGUCUUAU [salish99_TOv2_r3_018] (puzzle: Sensor v3, turn-off variant 2)			17.6 nM	1380 nM	17.1 nM	
GUUACACAUGAGGAUCACCCAUGUAAGGAUAUGCUGCGGUCGCGAAAACGUGACUGCAGCAGAAGGUACACAUG [Mat - Mod of JL D61] (puzzle: Exclusion 1)				135 nM		
UAUUAACAAGCGAGAUCCUACAUGAGGAUCACCCAUGUGCUCGUCUUAUAAGGUACUGUGACGAAAGUCACGGUACC [Eli 91 v37] (Eterna round: R97, puzzle: Sensor, turn-off variant 1)	19.5 nM	21 nM				
CGUGACUGAGGAUAUCUAUGAUAUCACAUGAGGAUCACCCAUGUCCAGCGAAAGCUGGAGGGAGAAGGCAGUCACG [Fiskers Ex 5 - 30] (puzzle: Exclusion 5)			61.5 nM	220 nM	185 nM	
